Literature values as cited in publication PMC9371363.

Tests used:
IL-4Rα (Homo sapiens) = IL-4Rα (Homo sapiens) (UniProt P24394)
IL-13Rα2 (Homo sapiens) = IL-13Rα2 (Homo sapiens) (UniProt Q14627)
Chain of UniProt Q14627 (Q14627 27-343): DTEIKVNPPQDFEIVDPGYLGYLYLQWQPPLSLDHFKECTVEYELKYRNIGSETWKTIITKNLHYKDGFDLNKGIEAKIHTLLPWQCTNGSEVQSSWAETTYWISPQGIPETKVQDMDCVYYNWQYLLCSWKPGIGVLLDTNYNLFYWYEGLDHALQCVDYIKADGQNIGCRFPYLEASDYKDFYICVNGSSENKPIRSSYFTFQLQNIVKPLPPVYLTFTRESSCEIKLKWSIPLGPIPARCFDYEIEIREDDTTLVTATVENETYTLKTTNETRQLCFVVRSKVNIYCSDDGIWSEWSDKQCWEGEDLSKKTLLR

Chain of UniProt P24394 (P24394 26-232): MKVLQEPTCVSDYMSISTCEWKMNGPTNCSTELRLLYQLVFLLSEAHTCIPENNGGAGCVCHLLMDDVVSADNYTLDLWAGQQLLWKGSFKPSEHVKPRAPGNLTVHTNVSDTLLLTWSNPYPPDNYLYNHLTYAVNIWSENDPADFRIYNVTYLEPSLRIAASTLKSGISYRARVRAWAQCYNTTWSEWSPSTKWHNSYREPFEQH

| Kd (IL-4Rα (Homo sapiens)) [pM] | Kd (IL-13Rα2 (Homo sapiens)) [pM] | Substance |
| --- | --- | --- |
| 100 |  | IL-4 (from UniProt P05112) |
|  | < 0.001 | IL-13 (from UniProt P35225) |
